Patent US20250230234A1

Legend:
[1] = target: human GPRC5D-human GPRC5A chimera (85-93) (human) (UniProt Q9NZD1); experiment: flow cytometry on FreeStyle 293-F cells expressing the chimera (aa85-aa93); negative control
[2] = target: human GPRC5D-human GPRC5A chimera (Nterm) (human) (UniProt Q9NZD1); experiment: flow cytometry on FreeStyle 293-F cells expressing the chimera (Nter); negative control
[3] = target: human GPRC5D (full length, on cells) (human) (UniProt Q9NZD1); experiment: flow cytometry on FreeStyle 293-F cells expressing hGPRC5D; negative control
[4] = target: human GPRC5D-human GPRC5A chimera (145-167) (human) (UniProt Q9NZD1); experiment: flow cytometry on FreeStyle 293-F cells expressing the chimera (aa145-aa167); negative control
[5] = target: human GPRC5D-human GPRC5A chimera (226-239) (human) (UniProt Q9NZD1); experiment: flow cytometry on FreeStyle 293-F cells expressing the chimera (aa226-aa239); negative control
human GPRC5D-human GPRC5A chimera (226-239) (human), sequence (Q9NZD1 other isoform, or with tags, fused parts or gaps mutant): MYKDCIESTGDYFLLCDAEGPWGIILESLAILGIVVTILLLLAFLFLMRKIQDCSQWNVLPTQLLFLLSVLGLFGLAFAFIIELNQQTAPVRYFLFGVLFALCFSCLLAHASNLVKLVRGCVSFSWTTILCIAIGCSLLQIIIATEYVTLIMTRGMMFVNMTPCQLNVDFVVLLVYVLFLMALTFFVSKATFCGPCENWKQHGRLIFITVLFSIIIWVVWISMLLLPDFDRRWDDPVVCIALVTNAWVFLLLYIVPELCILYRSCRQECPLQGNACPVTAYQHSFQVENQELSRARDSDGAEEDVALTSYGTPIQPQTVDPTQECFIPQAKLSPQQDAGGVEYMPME

human GPRC5D (full length, on cells) (human), sequence (Q9NZD1 whole entry, the tested form may be a part): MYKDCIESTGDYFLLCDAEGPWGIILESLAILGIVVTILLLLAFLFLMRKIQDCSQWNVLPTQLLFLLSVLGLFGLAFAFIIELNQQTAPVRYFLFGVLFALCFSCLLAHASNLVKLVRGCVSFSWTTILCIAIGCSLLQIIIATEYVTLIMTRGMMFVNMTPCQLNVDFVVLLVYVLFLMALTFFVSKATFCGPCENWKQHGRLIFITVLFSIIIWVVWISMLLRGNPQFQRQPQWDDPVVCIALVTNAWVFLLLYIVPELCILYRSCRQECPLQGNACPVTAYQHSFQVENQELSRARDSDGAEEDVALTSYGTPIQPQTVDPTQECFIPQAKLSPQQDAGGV
human GPRC5D-human GPRC5A chimera (145-167) (human), sequence (Q9NZD1 other isoform, or with tags, fused parts or gaps mutant): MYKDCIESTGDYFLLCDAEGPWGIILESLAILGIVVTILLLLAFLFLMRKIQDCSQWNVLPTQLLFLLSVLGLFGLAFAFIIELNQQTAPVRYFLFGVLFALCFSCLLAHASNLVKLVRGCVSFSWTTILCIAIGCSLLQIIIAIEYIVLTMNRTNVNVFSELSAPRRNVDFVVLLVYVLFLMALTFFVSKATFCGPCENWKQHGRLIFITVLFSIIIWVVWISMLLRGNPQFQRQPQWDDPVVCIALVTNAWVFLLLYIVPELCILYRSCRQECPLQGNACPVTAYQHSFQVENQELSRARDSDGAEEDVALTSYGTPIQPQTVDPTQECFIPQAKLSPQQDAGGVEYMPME
human GPRC5D-human GPRC5A chimera (85-93) (human), sequence (Q9NZD1 other isoform, or with tags, fused parts or gaps mutant): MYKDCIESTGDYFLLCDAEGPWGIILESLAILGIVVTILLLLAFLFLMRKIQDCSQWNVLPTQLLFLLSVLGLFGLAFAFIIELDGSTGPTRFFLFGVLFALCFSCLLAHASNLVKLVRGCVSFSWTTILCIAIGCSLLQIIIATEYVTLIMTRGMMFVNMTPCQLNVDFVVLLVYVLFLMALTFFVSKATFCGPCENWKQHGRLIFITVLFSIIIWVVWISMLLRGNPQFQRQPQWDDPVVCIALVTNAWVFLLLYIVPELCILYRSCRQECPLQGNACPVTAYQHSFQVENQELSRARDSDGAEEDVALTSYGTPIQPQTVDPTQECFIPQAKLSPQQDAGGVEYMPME
human GPRC5D-human GPRC5A chimera (Nterm) (human), sequence (Q9NZD1 other isoform, or with tags, fused parts or gaps mutant): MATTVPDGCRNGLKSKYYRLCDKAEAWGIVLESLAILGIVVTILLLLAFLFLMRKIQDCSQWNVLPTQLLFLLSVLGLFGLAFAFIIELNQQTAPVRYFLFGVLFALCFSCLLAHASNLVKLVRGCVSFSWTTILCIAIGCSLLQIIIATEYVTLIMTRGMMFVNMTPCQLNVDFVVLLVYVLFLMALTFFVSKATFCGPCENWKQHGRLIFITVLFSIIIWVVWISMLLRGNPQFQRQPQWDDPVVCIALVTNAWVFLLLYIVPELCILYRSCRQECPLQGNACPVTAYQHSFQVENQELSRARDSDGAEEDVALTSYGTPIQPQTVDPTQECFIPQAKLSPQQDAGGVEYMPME

MFI [1]: 29700 | MFI [2]: 24700 | MFI [3]: 27400 | MFI [4]: 32500 | MFI [5]: 29800
Substance: Isotype control IgG1 in wildtype format (antibody to an irrelevant small molecule target)
